# Experimental data published in the domain aggregation screens of Martell et al. (2025).
# Assay: soluble fraction after stress (log2 fold change); higher = more stays soluble; pooled small domains, quantitative proteomics
# Conditions: stress: pH 4
# Procedure, shortened: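 Pooled custom libraries of small protein domains were subjected to pH 4 and measured by high-throughput quantitative proteomics. The log2 fold change in soluble amount per domain is reported, higher values meaning more remained soluble. This is used as a measure of aggregation propensity.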
row,Sequence,soluble fraction (log2)
1,HMSFKQARFMMDAANGKALAWLYSHAEVLDRKDQGENIEIHVMISPADLSRFVNAFGYQPVQS,-0.0667
2,HMSFMFEISVIRSQYNMQDPESKTGFYNAIAKKLLEFPEKLERDNYTEAVAREYMIPETDLKNLVNSMGG,-1.66
3,HMSFNGTILSNYQKTYPNLAKFTYDQANDALVYEGNFIKLNGYGLSRIDPVFFNMNPDEIFIFIKNG,-2.69
4,HMSFNTNENKNLLWELMNKHNLFKDIDNQHYQEVQKLFEEEIVFISNNNKSLDLVEQNKKFLSSIITKLNK,-1.2
5,HMSFPQVELNTNKGRIVLELNSEKAPKTVANFLEYVRDGFYDGVIFHRVIDGFMIQGGGFDENFKEKA,-0.275
6,HMSFSPYLVRVSITDLNIRKGPGTNYAKTGKFTGKGVFTIVEMQTGKGSDTGWGRLKSGAGWISLDYTEKI,0.0318
7,HMSFSQNIGKRIREERLRLNLTQEKLAEDVNLSMAYIGQVERGDRSLTLDNLIIVAKRLGVTIDYLLS,-0.171
8,HMSFTSQSVLIEIVRGTTQLTPLAAAVGANKREVVLAVHRLKQRGLVVSAGLGQYAATEAGRAFLTAGREV,≥ 0.43
9,HMSFYSVVISQDGSMLVAENRNEIYSNEELLELASEVNEKTGTIGTIGSLMYYKADKGGYTLITFLDNS,-2.05
10,HMSGALDTVVGIRMLKLLSTPIEKSKAFQVGIINKDGKKLRDPTSGERQHYTFLNRFVFKVQYALMRS,-0.072
11,HMSGDYRPLYPNLPESEKSEAFNLLAGSALPARLDDRTGDIMVPADRYYEARMILANAGFAD,0.053
12,HMSGEMGIIVAKRLPIRSEPDELATRAFVLKAGTRVKIVKHLNGWLEIVHDGKAGYVQDLEVYVRVIG,-0.445
13,HMSGEPVKSTLPGNVFKILVAVGDSVKKGQRMFVLEAMKMEIDVNAPKDGLVTSIEVQQGQTVANGQILAK,0.181
14,HMSGIESIVIPLKGLDFDMISSTLTPQLKQAIKYDKQSDSIILVGTNAKVNIIAKQVNAMVEVYKLKT,-0.0326
15,HMSGIGTTIKMLRENKNISQEELGNVLGVSDKTISSWEINRTEPKMGIVQLLADYFGVSTDYLIKG,-0.201
16,HMSGILINGELYKPGEQMSLKQRLSIQARIQMQGEDTVKPEMLKDFYNSGGPLSKEESSEYMKSQN,-0.321
17,HMSGIQNNFITRLKKVLAPTIGIAEEISDLLNISIDSAYRRIRGETDFTFEEIYIITRKHKISIDEIYG,-2.14
18,HMSGIVPAAPPLRPDLDIKWHTGDKVRHAKWGEGTIVSVKGEGEETELKIAFPGQGIRPFMQKYAPITR,0.214
19,HMSGLEDIKKKILEDAGIKKGSVKFVKVDKDYDDGIWKYEIDFVYDGKEYEYEIEVETGKILSRKTEKSD,0.165

row,Sequence,soluble fraction (log2)
1,HMSGLVPAIGTKGEEGYIRESDIPGSNVKNPEEALAYMEWLKTQPSELLIPLYDEQGNVIGQFAVS,-0.681
2,HMSGMEKLAIQEIEKEIKSFVKGDILIELTGKNRATAYVSEKNVGALIGKKGERINSIEKRLGVGIDVRPY,-0.275
3,HMSGMNSDHRVNGNIHTFLIQHDLGTKWSVFTEQLLKQVFRSFLPDKELNFQTTDSTVILKVSLGSDFNEH,-0.19
4,HMSGPAEDLLAIEGMDKELAYELAARGIRTRDELADQSLDELEAVPGLDPVRAGQLIMAARAHLFENAGQ,-0.355
5,HMSGRSVSYSEFMSRVEAGQVSSVTLDGERVEVTGSDGSRYVTIAPSDATLTDKLVAKGVEVRADP,0.196
6,HMSGSKEQQIVILNNILERQLQAFGLQGNREFPMVTLKNIYNSLSKIIENAGLKNVENYFVNPEQGKQM,-0.394
7,HMSGTFIGGELVKPGEPLTPMQRAAITMGLQMGNTYSPEIMEKYNNAGGSPSKEEFENYQKNKS,0.22
8,HMSHGFFELKTTQKEALIKLLDSHPNFTHTKTEADLTTAFLKLPMDAEQFNKLLFTNGIVLSHLVKRK,-0.276
9,HMSHGYVEMQAKDDQVLLAALKNHPWFEKVSIDEETGLTKAILTQPIEAEELNSMLFEKGIVLSHLVKRK,-1.2
10,HMSHISLGQRYKIEGYLQINLKRTQIAKEIGLPKKTVNQEIKRNSNPQTGIYKAEEAHQLYLDRMQKKRK,0.426
11,HMSHKYKLTVPETGEGTRVDKFLSSALTELSRTRLKSLIEEGQVTLGGVKLTNPSHRVKSGDELNIEIPVP,0.0568
12,HMSHPNAPLTPEGRRRLAVLIVEDGWTIRRAAERFQVSPATASKWARRYRAGESLTDRSSRP,0.0223
13,HMSHSDMEEWTDAVRSRRKKLGLTQVQIARRLGVTSHHFSQIESGRTIPSASLQIEIDRLLKNWND,0.0462
14,HMSHSVLIDISQLRIGMYIQLDVGWMHHPFPVSSFRVASLEQIEALRTLNLAQVRYFPAKSDPV,-1.11
15,HMSIAEMSGARKSAILLLALDEDSAAEIFKYLSAGEVQEISMEMAKLNQVSHDDMKAVLEAFHKETEEFV,-1.02
16,HMSIAKIIGDRIRAYRNQKGWSQEYLAEKADVHHTYIGQLERGEKNATIESISKIAGALGVSLSRLFEN,0.192
17,HMSIEHVPGYTTLSKREQEIVHALLTRKTPEELADDLSISINTLNKHISHIYHKLGIRGRMQLFDYA,-0.0894
18,HMSIEIKTIDVKHADLFQLQDILRNLYPELNIVPDQRNNKLILQGKRELLVEAERLTLQLDTE,-1.29
19,HMSIESPEEFNAKFPPGSEIYATNIQKNAIVQSPANAKGDVEILANSMRLTINFRFISKRDT,0.334
